Laboratory results published in article PMC3920835.

Target: Methylibium petroleiphilum PM1 dioxygenase (Mpe_A2762) (Methylibium petroleiphilum PM1) (UniProt A2SJH7)
Experiment: SEC-MALS

stoichiometry N: 2
Substance: Methylibium petroleiphilum PM1 dioxygenase (Mpe_A2762) (from UniProt A2SJH7 1-253) (enzyme)
